First the molecules themselves.
B1: Twister Ribozyme (parent)
chain: AACACUGCCAAUGCCGGUCCCAAGCCCGGAUAAAAGUGGAGGGGGCGG

This data set covers variants of B1. The data set is described as follows: self-cleavage, relative activity (ratio to wild type); higher = more cleavage; co-transcriptional.
Consider AACACUGCCAAUGCCGAUCCCAAGCCCGGAUCAAAGUGGAGGGGGCGG [G17A A32C], for which the self-cleavage was 0.303.

In the case of AACACUGCCAGUGCCGGUCCCAAGCCCGGAUAAAUGUGGAGGGGGCGG [A11G A35U], the self-cleavage was found to be 0.941.

For the variant AACACUGCCAAUGCCGGUCCCAAGCCCGGAUAAUAGUGGAGGCGGCGG [A34U G43C], the self-cleavage stood at 0.186.

AACACUGCCAAAGCCGGUCACAAGCCCGGAUAAAAGUGGAGGGGGCGG [U12A C20A]: the self-cleavage was 0.181.

For the variant AACACUGCCAAUGCCGGUCCCAAGCCUGGAUAAAAGUGGAAGGGGCGG [C27U G41A], the self-cleavage is 0.347.

For AACACUGCCAAUGCCGGUCCCAAGCGCGGAUACAAGUGGAGGGGGCGG [C26G A33C], the self-cleavage worked out at 0.129.

With AACACUACCAAUGCCGGUCCCAAGCCCGGAUAAACGUGGAGGGGGCGG [G7A A35C], the self-cleavage was 0.493.

As to AACACUGCCAAUGCCGGACCCAAGCCCGGUUAAAAGUGGAGGGGGCGG [U18A A30U], the self-cleavage amounted to 0.586.

For the variant AACACUGUUAAUGCCGGUCCCAAGCCCGGAUAAAAGUGGAGGGGGCGG [C8U C9U], the self-cleavage was 0.0747.

For the variant ACCACUGCCAAUGUCGGUCCCAAGCCCGGAUAAAAGUGGAGGGGGCGG [A2C C14U], the self-cleavage turned out to be 0.0681.

As to AACACUGCCAAGGCCGGUCCCAAGCCCGGAUAAAAGUGGACGGGGCGG [U12G G41C], the self-cleavage is 0.315.

Take AACACUGCCAAUGCCGGUCCCAAGCUCUGAUAAAAGUGGAGGGGGCGG [C26U G28U]: the self-cleavage turned out to be 0.142.

As for AACACUGCCAAUGUAGGUCCCAAGCCCGGAUAAAAGUGGAGGGGGCGG [C14U C15A], the self-cleavage was determined as 0.636.

Consider AACACUGCCACUGCCGGUCCCAAGCCCGGAUAAAACUGGAGGGGGCGG [A11C G36C], for which the self-cleavage is 0.636.

Take AACACUGGCCAUGCCGGUCCCAAGCCCGGAUAAAAGUGGAGGGGGCGG [C8G A10C]: the self-cleavage came out at 0.872.

For the variant AACACUGCCAAUGCCGGUCCCAAGCCCGGAUACAAGUGGAGGGGGCGU [A33C G48U], the self-cleavage is 1.04.

Take AACACUGCCAUUGCCGGUCCCAAGCCCGGAUAAAAGUGGAGGGAGCGG [A11U G44A]: the self-cleavage was determined as 0.977.

On to AACACUGCCAAUGCCGGUUCCAAGCCCGGAUAAAAGUGGAGGGGGCGA [C19U G48A], for which the self-cleavage came out at 0.915.

With AACACUGCCAAUGCCGGUCCCAAGCCCGGAUAAAAGAGGAGGGAGCGG [U37A G44A], the self-cleavage was 0.873.

As for AAAACUGCCAAUGCCGGACCCAAGCCCGGAUAAAAGUGGAGGGGGCGG [C3A U18A], the self-cleavage was determined as 0.0528.

In the case of AACACUGCCAAUGCCGGUCCCAAGCCCGGAUAAAAGCGGAGGGGGGGG [U37C C46G], the self-cleavage came to 0.706.

Consider AACACUGGCAAUACCGGUCCCAAGCCCGGAUAAAAGUGGAGGGGGCGG [C8G G13A], for which the self-cleavage was found to be 0.405.

Turning to AACACUACCAAUGCCGGUCCCAGGCCCGGAUAAAAGUGGAGGGGGCGG [G7A A23G], the self-cleavage came to 0.0819.

For the variant AACACUGCCUAUGGCGGUCCCAAGCCCGGAUAAAAGUGGAGGGGGCGG [A10U C14G], the self-cleavage was determined as 0.244.

In the case of AAAACUGCCAAUGCCGGUCACAAGCCCGGAUAAAAGUGGAGGGGGCGG [C3A C20A], the self-cleavage was determined as 0.0829.

Turning to AACACUGCCCGUGCCGGUCCCAAGCCCGGAUAAAAGUGGAGGGGGCGG [A10C A11G], the self-cleavage stood at 1.12.

Regarding AACACUGCCAAUGCCGGUCCGAAGCCCGUAUAAAAGUGGAGGGGGCGG [C21G G29U], the self-cleavage came out at 0.0841.

Regarding AACACUGCCAAUGCCGGUCCCGAGGCCGGAUAAAAGUGGAGGGGGCGG [A22G C25G], the self-cleavage is 0.0838.

With AACACUGCCAAUGCCGCUCACAAGCCCGGAUAAAAGUGGAGGGGGCGG [G17C C20A], the self-cleavage worked out at 0.0695.

On to AACACUGCCAAUGCCGGUCCCAAGCCCGGAUAAAAGUGGACGAGGCGG [G41C G43A], for which the self-cleavage stood at 0.141.

On to AACACUGCCAAUGCCGGUCUCAAGCCCCGAUAAAAGUGGAGGGGGCGG [C20U G28C], for which the self-cleavage amounted to 0.774.

As to AACACUGCCAAUGCCGGUCCCAAGCCCGGAUAAAAGUGGAAGGGUCGG [G41A G45U], the self-cleavage is 0.196.

As for AAAACUGCCAAUGCCGGUCCCAAGCCCGGAUAAAUGUGGAGGGGGCGG [C3A A35U], the self-cleavage was 0.16.

As for AACAGUGCCACUGCCGGUCCCAAGCCCGGAUAAAAGUGGAGGGGGCGG [C5G A11C], the self-cleavage stood at 0.298.

On to AACACUGCCUAUGCCGGUCCCAAGCCCGGAUAAAACUGGAGGGGGCGG [A10U G36C], for which the self-cleavage was found to be 0.711.

As to ACCACUGCCAAUGCCGGGCCCAAGCCCGGAUAAAAGUGGAGGGGGCGG [A2C U18G], the self-cleavage turned out to be 0.0901.

AACACUGCCAAUCCGGGUCCCAAGCCCGGAUAAAAGUGGAGGGGGCGG [G13C C15G]: the self-cleavage was determined as 0.0922.

AACACUGCCAAUCCAGGUCCCAAGCCCGGAUAAAAGUGGAGGGGGCGG [G13C C15A]: the self-cleavage amounted to 0.0696.

Take AACACUGCCAAUGCCCGUCCCAAGCCCGAAUAAAAGUGGAGGGGGCGG [G16C G29A]: the self-cleavage was found to be 0.222.

As to AGCACUGCCAUUGCCGGUCCCAAGCCCGGAUAAAAGUGGAGGGGGCGG [A2G A11U], the self-cleavage worked out at 0.583.

As to AACACUGCCAAUGCCGGUCCCAUGCCCGGAUAAAAGUGGGGGGGGCGG [A23U A40G], the self-cleavage came out at 0.0874.

Turning to AACACUGCCAAUGCCGGUCCCAACCCCGGAUAAAUGUGGAGGGGGCGG [G24C A35U], the self-cleavage is 0.0871.

With AACACUGCCAAUGCCGGUCCUAAGCCCGGAUAAUAGUGGAGGGGGCGG [C21U A34U], the self-cleavage is 0.11.

AGCACUGUCAAUGCCGGUCCCAAGCCCGGAUAAAAGUGGAGGGGGCGG [A2G C8U]: the self-cleavage is 0.194.

As to AACACUGCCAAUGCCGGUCCCAAGCCGGGAUAAAAGUGGAGGUGGCGG [C27G G43U], the self-cleavage is 0.0926.

For the variant AACACUGCCAAUGCCGGUCCCAAGCCCGGAUAAAAGUGGAGGGGCUGG [G45C C46U], the self-cleavage came to 0.544.

For the variant AACACUGCCAUUGCCGGUCCCAAGCCCGGAUGAAAGUGGAGGGGGCGG [A11U A32G], the self-cleavage was found to be 0.911.

AACACGGCCAAUGCCGGUCCCAAGCCCGGAUGAAAGUGGAGGGGGCGG [U6G A32G]: the self-cleavage worked out at 0.337.

With AACACUGCCAAUGCCGGACCCAAGCCCGGAUAAAAGUGGAGGGGGGGG [U18A C46G], the self-cleavage worked out at 0.475.

Consider AACACUGCCACUGCCGGUCCCAAGCCCUGAUAAAAGUGGAGGGGGCGG [A11C G28U], for which the self-cleavage was determined as 0.563.

In the case of AACACUGCCAAUGCCGGUGCCAAGCCCGGAUGAAAGUGGAGGGGGCGG [C19G A32G], the self-cleavage came out at 0.267.

Consider AUCACUGCCAAUGCCGGUCCCAAGCCCGGAUAAAAGUGGAGGAGGCGG [A2U G43A], for which the self-cleavage was 0.128.

Regarding AACACUCCCAAUGCCGGUCCCAAGCCCGGAUAGAAGUGGAGGGGGCGG [G7C A33G], the self-cleavage stood at 0.064.

On to AACACUGCCAAUGCCGGUCCCAAGCCCGGAUGAAAGUGGAGGGGUCGG [A32G G45U], for which the self-cleavage was determined as 0.668.

For the origin of these results see the RNAGym collection of RNA variant scans (doi:10.7554/elife.80360).
